# “Also recorded” adds a separate entry of the source. Marks after values point to notes of the source that are not given here.
# B1: PEDF: full length pigment epithelium derived growth factor, SEQ ID NO:1; purified from WERI-Rb-27R medium or recombinant histidine-tagged (protein, listed as Homo Sapiens)
# chain: MQALVLLLCIGALLGHSSCQNPASPPEEGSPDPDSTGALVEEEDPFFKVPVNKLAAAVSNFGYDLYRVRSSMSPTTNVLLSPLSVATALSALSLGADERTESIIHRALYYDLISSPDIHGTYKELLDTVTAPQKNLKSASRIVFEKKLRIKSSFVAPLEKSYGTRPRVLTGNPRLDLQEINNWVQAQMKGKLARSTKEIPDEISILLLGVAHFKGQWVTKFDSRKTSLEDFYLDEERTVRVPMMSDPKAVLRYGLDSDLSCKIAQLPLTGSMSIIFFLPLKVTQNLTLIEESLTSEFIHDIDRELKTVQAVLTVPKLKLSYEGEVTKSLQEMKLQSLFDSPDFSKITGKPIKLTQVEHRAGFEWNEDGAGTTPSPGLQPAHLTFPLDYHLNQPFIFVLRDTDTGALLFIGKILDPRGP
# How the values were obtained:
# [1] = tested on: WI-38 fibroblasts, human foreskin fibroblasts, vascular smooth muscle cells, human neutrophils; assay: Migration assay with non-endothelial cells; assay type: cell-based; conditions: PEDF 0.01 nM to about 50 nM; inducers IL-8 or PDGF; FIGS. 2A-2D
# Method: The ability of PEDF to prevent migration of fibroblasts or smooth muscle was tested using cells obtained from human diploid fibroblast cell line WI-38, human foreskin fibroblasts, vascular smooth muscle, and normal human neutrophils.
# The assay was performed as indicated in Example 1, except that the dose of PEDF varied from 0.01 nM to about 50 nM and that the migration assay was performed without inverting the chambers. Moreover, the inducer of migration varied with the cell type (IL-8 was used at 1 μg/ml and PDGF was used at 250 pg/ml).
# [2] = tested on: endothelial cells isolated from human umbilical chords; assay: Endothelial cell migration assay, endothelial cells from human umbilical chords; assay type: cell-based; conditions: 10 ng/ml bFGF plus PEDF; FIG. 1
# Method: The migration of different vascular endothelial cell types was determined by adding PEDF to cultured endothelial cells, specifically, endothelial cells isolated from bovine adrenal capillaries, human umbilical chords, and human dermal microvascular tissue.
# (§1) The cells were plated on gelatinized Nucleopore membranes (5 μm pores for bovine capillary cells and 8 μm pores for other cells) in an inverted modified Boyden chamber. After two hours, the chamber was reinverted and test substances added to the top wells of each. Specifically, populations were exposed to either culture medium alone (control), 10 ng/ml bFGF, 2 nM PEDF (full length PEDF), or both 10 ng/ml bFGF (basic fibroblast growth factor) and 10 nM PEDF. The cells were then permitted to migrate for 3-4 hours. Following this, the membranes were fixed and stained, and the number of cells that had migrated were counted.
# retina of C57/BL6 mice = assay: Hyperoxia-induced ischemic retinopathy, systemic treatment; assay type: in vivo, mouse; conditions: day 12 through 16
# Method: Retinopathy was induced in C57/BL6 mice by placing seven day old mice with their dams in an oxygen tent and maintaining the animals in a 75% oxygen/25% nitrogen environment until day twelve. On day twelve, the animals were removed from the tent and placed at ambient atmosphere (21% oxygen). From day twelve through day sixteen, pups were treated via intraperitoneal injection once per day with 100 μl of either phosphate buffered saline (PBS) vehicle, or 11.2 μg or 22.4 μg PEDF in PBS. Pups were anesthetized with Metaphane and perfused with 1 ml of fixative (4% paraformaldehyde/100 mM sodium phosphate buffer (pH 7.2)/4% sucrose) through the left ventricle of the heart. Eyes were removed and placed in fixative, embedded in paraffin, and processed for histologic examination. Cross sections of the eye were made, stained with hematoxylin-phloxine-saffarin (HPS), and the number of endothelial cell nuclei crossing the inner limiting membrane of the retina were counted in one cross section that contained the cornea, lens, retina and optic nerve. FIG. 16A illustrates retinopathy in the eye of a PBS treated animal, the box surrounds a vascular tuft that has penetrated the inner limiting membrane of the retinal in the low power picture. FIGS. 16C and 16D illustrate the eye of a PEDF treated mouse, no vascular tufts are present. The # of endothelial cell nuclei were quantified (Table 3).
# [3] = tested on: SK-N-BE(2) and SK-N-SH neuroblastoma cells; assay: Differentiation of cultured human neuroblastoma cells (neurite outgrowth); assay type: cell-based; conditions: in vitro, 24 hours, purified histidine tagged PEDF; FIGS. 9, 10
# Method: In vitro experiments were conducted to verify the effect of PEDF on cell lines derived from neuroblastoma tumors. Two neuroblastoma derived cell lines were obtained from the American Tissue Type and Culture, SK-N-BE(2) and SK-N-SH. Both cell lines were maintained in culture in DMEM containing 10% fetal bovine serum (Flow Laboratories, McLean, Va.) in 37° C. and 5% CO2. Cells (1.25×10^4/ml) were resuspended, and 1 ml/well was used to seed 24 well plates. Twenty-four hours later, PEDF was added to triplicate wells at […] , 0.75, 1 or 10 nM, and the cells were incubated for an additional 24 hours. The percentage of differentiated cells was determined by counting the total number of cells in three non-overlapping 1 mm^2 areas per well.
# SK-N-BE(2) tumors = assay: Differentiation of human neuroblastoma tumors in athymic mice (neurofilament staining); assay type: in vivo, mouse; conditions: 2 μg PEDF per day intratumoral, 4 days
# Method: In vivo experiments were conducted to determine the effect of PEDF on neuroblastoma tumors. […] When the tumors grew to a palpable size (approximately 8 mm in diameter) PEDF treatment was started. A total of 2 μg of purified histidine-tagged PEDF in a volume of 100 μl of phosphate buffered saline was injected into 2-3 sites/tumor each day for 4 consecutive days. On the fifth day, the mice were euthanized by an overdose of metaphane, and the tumors were surgically removed. Tumor tissue was sliced and placed in buffered formalin for at least 24 hours. Tissue was embedded in paraffin and prepared for histologic examination. Sections were stained with an antibody that recognized neurofilament protein (Dako, Carpinteria, Calif.). […] A total of six SK-N-BE(2) tumors were treated with PEDF and 6/6 were moderately to strongly positive for neurofilament staining.
# [4] = tested on: bovine adrenal capillary endothelial cells; assay: Endothelial cell migration assay (modified Boyden chamber), bovine adrenal capillary endothelial cells; assay type: cell-based
# Method: as §1
# The amount of a given factor necessary to achieve 50% of migration was determined and is reported here as ED50.
# In particular, aFGF was employed at a concentration of 50 ng/ml, bFGF was employed at a concentration of 10 ng/ml, IL-8 was employed at a concentration of 40 ng/ml, PDGF was employed at a concentration of 250 pg/ml, and VEGF was employed at a concentration of 100 pg/ml.
# In studies aimed at identifying antiangiogenic factors in the eye that might be regulated by the retinoblastoma tumor suppressor gene (Rb), media was fractionated where the media was previously conditioned by a retinoblastoma cell line that had been infected with a retrovirus expressing the wild-type Rb gene, WERI-Rb-27R. (Xu et al., 1991, Cancer Res. 51:4481). […] PEDF was purified from WERI-Rb-27R serum-free conditioned media by sequential steps consisting of dialysis (molecular mass cutoff, 30 kD) against distilled water, 60 to 95% ammonium sulfate precipitation, step elution from lentil lectin Sepharose 4B (Pharmacia) with 0.5 M α-methyl-D-mannopyranoside, and elution from a HiTrap heparin Sepharose column (Pharmacia) with increasing NACl gradient. (Xu, et al., 1991, Cancer Res. 51:4481). […] Migration assays were performed in quadruplicate for each sample with bovine adrenal capillary endothelial cells or human dermal microvascular endothelial cells (Clonetics, San Diego, Calif.) as described. (Polverini, et al., 1991, Methods Enzymol. 198:440). To combine multiple experiments, background migration (Bkgd) was first subtracted toward vehicle (0.1% bovine serum albumin) and them normalized data by setting maximum migration toward inducer alone to 100%. All experiments were repeated two to five times. Statistics were performed on raw data before normalization with the Student's t test. Standard errors were converted to percentages. […] Single-letter abbreviations for the amino acid residues are as follows: A, Ala; D, Asp; E. Glu; F. Phe; G, Gly; I, Ile; L, Leu; M, Met; P, Pro; Q, Gln; R, Arg; S, Ser; T, Thr; V, Val; X, any amino acid; and Y, Tyr.
molecule,measurement,setting,value
B1,inhibition of migration of non-endothelial cells,[1],did not inhibit the migration
same,"migration, percentage of maximal migration",[2],considerably less migration was observed
same,Mean number of endothelial cell nuclei crossing ILM into vitreous per cross section,retina of C57/BL6 mice; 11.2 μg PEDF/day intraperitoneal,18.6 +/− 2.2*
same,Mean number of endothelial cell nuclei crossing ILM into vitreous per cross section,retina of C57/BL6 mice; 22.4 μg PEDF/day intraperitoneal,18.2 +/− 2.5*
same,differentiation of neuroblastoma cells,[3],triggered differentiation of the cells
same,tumors moderately to strongly positive for neurofilament staining / tumors treated,SK-N-BE(2) tumors,6/6
same,"migration, percentage of maximal migration","[4]; 10 ng/ml bFGF plus PEDF, FIG. 1",considerably less migration was observed
same,migration toward different angiogenic inducers,"[4]; 0.1 μg/ml PEDF, aFGF, bFGF, IL-8, PDGF, VEGF, FIG. 3",considerably inhibited; also recorded: inhibited endothelial cell migration toward every angiogenic inducer we tested
same,"potency at inhibiting endothelial cell migration, dose response","[4]; migration towards bFGF, FIGS. 4 and 5",active at sub-nanomolar concentrations

# Source: patent publication US6919309B2, “Methods and compositions for inhibiting angiogenesis” (Northwestern University, priority 1997, dated 2005)
